Test results taken from the supplement of paper PMC10065799, “High-throughput profiling of sequence recognition by tyrosine kinases and SH2 domains using bacterial peptide display” (eLife, 2023).

Key:
FGFR3 = FGFR3 (UniProt P22607); assay: phosphorylation enrichment, bacterial display (enrichment ratio); higher = better substrate or ligand; peptides without Tyr show the background
c-Abl (mouse) = assay: as above
Fer (mouse) = assay: as above
Jak2 = Jak2 (UniProt O60674); assay: as above
FGFR1 = FGFR1 (UniProt P11362); assay: as above
Chain of FGFR1 (P11362 whole entry, looked up): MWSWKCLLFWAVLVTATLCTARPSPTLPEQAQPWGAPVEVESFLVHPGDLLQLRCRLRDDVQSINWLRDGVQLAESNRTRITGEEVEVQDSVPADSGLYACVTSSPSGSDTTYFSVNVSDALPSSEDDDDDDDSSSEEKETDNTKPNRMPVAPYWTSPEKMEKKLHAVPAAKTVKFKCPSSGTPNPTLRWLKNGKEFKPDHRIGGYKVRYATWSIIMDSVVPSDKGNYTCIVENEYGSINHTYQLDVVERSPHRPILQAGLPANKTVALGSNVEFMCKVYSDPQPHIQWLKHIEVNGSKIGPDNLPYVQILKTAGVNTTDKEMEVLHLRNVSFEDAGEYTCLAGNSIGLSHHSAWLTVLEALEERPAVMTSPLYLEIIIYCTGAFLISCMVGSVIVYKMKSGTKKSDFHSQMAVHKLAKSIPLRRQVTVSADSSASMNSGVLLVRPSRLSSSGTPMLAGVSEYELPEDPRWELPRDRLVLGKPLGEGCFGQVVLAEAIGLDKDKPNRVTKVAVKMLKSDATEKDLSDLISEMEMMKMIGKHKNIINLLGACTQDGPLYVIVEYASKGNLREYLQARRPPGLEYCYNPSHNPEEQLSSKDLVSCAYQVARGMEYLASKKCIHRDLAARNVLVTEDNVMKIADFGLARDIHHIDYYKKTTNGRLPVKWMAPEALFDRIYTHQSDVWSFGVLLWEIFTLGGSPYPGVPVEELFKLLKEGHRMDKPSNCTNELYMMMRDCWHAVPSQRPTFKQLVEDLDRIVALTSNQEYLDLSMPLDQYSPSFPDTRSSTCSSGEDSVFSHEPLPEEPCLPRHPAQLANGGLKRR

c-Src = assay: as above
EPHB1 = EPHB1 (UniProt P54762); assay: as above
Hck = Hck (UniProt P08631); assay: as above
Fyn = Fyn (UniProt P06241); assay: as above
AncSZ = assay: as above
EPHB2 = EPHB2 (UniProt P29323); assay: as above
Chain of EPHB2 (P29323 whole entry, looked up): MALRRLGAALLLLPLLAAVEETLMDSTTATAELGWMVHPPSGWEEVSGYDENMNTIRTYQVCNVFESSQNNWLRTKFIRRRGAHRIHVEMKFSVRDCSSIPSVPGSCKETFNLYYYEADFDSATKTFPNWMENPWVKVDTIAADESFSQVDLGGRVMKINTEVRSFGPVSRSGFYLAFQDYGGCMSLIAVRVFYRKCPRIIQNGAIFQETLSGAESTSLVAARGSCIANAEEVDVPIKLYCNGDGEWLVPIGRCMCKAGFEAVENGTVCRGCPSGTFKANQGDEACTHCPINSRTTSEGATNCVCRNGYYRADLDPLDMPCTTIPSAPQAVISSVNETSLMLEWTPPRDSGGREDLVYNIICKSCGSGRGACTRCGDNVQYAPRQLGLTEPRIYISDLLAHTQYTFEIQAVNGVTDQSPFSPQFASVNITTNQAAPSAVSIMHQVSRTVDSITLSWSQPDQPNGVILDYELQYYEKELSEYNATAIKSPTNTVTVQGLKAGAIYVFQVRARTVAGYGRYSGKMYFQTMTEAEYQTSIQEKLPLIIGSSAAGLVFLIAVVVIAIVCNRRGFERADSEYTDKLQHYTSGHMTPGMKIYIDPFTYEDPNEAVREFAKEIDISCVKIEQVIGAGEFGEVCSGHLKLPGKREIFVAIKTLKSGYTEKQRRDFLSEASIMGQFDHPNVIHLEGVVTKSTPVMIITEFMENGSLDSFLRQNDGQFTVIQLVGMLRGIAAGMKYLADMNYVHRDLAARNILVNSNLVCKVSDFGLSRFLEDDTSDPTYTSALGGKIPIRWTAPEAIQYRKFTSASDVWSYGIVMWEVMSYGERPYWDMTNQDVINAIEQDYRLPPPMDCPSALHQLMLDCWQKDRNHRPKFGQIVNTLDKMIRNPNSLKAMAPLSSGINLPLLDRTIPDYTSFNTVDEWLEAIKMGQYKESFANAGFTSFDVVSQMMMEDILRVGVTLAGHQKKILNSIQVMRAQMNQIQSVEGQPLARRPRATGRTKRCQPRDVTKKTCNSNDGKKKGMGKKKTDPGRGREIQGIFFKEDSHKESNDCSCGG

MERTK = MERTK (UniProt Q12866); assay: as above
Fes = Fes (UniProt P07332); assay: as above
Chain of Fes (P07332 whole entry, looked up): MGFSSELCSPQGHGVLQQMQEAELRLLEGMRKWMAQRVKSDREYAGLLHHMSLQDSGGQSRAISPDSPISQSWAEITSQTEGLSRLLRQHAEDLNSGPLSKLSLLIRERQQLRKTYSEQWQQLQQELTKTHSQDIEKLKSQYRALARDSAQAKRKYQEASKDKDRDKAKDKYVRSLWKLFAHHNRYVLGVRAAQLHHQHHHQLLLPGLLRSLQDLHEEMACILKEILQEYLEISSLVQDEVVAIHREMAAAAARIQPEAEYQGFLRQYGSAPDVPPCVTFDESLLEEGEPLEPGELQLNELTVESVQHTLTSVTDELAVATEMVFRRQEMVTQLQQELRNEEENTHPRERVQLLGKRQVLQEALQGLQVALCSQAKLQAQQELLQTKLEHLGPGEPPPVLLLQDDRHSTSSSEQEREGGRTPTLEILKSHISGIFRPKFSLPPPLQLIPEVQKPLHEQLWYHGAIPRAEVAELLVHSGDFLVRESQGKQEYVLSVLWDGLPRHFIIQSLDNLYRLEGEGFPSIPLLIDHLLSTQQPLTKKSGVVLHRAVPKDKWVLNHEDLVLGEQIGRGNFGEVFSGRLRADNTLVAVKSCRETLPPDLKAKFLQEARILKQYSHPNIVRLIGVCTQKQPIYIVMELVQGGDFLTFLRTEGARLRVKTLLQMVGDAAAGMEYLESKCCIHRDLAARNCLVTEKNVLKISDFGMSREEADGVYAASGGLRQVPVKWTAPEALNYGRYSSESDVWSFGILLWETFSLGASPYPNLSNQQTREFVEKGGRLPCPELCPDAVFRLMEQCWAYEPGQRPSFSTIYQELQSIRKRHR

SHP2-C SH2 = assay: SH2 binding enrichment of the phosphorylated peptide, bacterial display (enrichment ratio); higher = better substrate or ligand; peptides without Tyr show the background
Grb2 SH2 = Grb2 SH2 (UniProt P62993); assay: as above
Chain of Grb2 SH2 (P62993 whole entry, looked up): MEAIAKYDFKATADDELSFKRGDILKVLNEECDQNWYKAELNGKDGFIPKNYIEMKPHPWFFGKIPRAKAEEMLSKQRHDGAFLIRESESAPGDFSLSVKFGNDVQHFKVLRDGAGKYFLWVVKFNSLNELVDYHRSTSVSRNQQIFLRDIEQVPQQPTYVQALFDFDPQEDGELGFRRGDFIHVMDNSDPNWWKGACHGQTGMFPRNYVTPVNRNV

c-Src SH2 = assay: as above
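Throughout, for SH2 binding enrichment of the phosphorylated peptide, bacterial display: peptide library displayed on the E. coli surface as eCPX fusions, selected cells deep-sequenced, score is each peptide's frequency after selection divided by its frequency in the input.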
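Throughout, for phosphorylation enrichment, bacterial display: 11-residue human phosphosite peptides and single-mutation variants displayed on the E. coli surface, counted by deep sequencing, each peptide's frequency after selection divided by its frequency in the unselected input library; frequency after pTyr selection over input frequency; kinase dosed for 20-30% of maximal phosphorylation in three min.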

Chain of Jak2 (O60674 whole entry, looked up): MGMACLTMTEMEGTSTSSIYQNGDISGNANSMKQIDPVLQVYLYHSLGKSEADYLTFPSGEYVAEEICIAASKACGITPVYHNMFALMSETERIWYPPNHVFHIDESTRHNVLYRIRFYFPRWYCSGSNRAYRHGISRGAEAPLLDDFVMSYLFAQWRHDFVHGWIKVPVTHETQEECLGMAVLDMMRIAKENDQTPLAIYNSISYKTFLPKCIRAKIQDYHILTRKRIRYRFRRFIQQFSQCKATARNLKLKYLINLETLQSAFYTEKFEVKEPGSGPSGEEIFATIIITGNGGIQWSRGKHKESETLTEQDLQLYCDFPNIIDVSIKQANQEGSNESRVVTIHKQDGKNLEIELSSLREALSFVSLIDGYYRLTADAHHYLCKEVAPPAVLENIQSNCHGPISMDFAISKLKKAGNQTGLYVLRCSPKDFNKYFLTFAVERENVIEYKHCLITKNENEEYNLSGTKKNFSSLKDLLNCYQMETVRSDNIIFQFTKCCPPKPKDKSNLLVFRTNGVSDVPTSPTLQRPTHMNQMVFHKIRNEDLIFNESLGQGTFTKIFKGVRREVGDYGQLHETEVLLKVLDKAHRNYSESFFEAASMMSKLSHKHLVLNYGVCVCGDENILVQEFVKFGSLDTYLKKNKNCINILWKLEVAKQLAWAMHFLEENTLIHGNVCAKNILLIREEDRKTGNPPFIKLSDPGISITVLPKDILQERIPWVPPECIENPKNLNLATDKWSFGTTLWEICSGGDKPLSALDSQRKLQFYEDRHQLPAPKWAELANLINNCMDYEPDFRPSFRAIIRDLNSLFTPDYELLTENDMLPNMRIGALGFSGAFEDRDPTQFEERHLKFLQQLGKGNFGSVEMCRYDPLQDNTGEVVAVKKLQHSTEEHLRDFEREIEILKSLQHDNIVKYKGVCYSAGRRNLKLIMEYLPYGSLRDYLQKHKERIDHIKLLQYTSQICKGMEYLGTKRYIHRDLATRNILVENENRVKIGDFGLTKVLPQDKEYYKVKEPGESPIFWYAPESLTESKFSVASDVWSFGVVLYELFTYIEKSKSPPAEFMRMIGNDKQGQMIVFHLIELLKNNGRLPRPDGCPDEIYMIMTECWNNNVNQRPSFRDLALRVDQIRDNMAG
Chain of FGFR3 (P22607 whole entry, looked up): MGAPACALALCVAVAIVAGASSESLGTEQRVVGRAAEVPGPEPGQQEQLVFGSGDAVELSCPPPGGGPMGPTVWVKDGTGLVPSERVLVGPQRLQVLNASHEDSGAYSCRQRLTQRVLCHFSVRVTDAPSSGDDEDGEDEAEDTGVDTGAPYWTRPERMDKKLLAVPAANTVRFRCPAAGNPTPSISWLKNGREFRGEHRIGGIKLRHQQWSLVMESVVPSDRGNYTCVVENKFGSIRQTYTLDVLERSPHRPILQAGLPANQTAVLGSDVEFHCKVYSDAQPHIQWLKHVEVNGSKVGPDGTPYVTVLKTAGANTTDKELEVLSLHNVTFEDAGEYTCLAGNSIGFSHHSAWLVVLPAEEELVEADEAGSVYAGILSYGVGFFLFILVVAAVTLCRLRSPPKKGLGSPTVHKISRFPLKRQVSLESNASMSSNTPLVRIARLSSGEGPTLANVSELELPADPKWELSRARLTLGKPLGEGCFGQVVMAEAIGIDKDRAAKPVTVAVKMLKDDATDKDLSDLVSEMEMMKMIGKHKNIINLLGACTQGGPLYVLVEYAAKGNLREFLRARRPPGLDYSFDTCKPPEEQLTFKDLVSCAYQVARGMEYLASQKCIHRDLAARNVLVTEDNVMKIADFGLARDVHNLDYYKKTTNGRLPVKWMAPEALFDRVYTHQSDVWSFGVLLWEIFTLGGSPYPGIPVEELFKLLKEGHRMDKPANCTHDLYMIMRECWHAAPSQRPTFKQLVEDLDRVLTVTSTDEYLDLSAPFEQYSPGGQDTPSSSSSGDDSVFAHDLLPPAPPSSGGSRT

Row | Sequence | phosphorylation enrichment (FGFR3) | phosphorylation enrichment (c-Abl (mouse)) | phosphorylation enrichment (Fer (mouse)) | phosphorylation enrichment (Jak2) | phosphorylation enrichment (FGFR1) | phosphorylation enrichment (c-Src) | phosphorylation enrichment (EPHB1) | phosphorylation enrichment (Hck) | phosphorylation enrichment (Fyn) | phosphorylation enrichment (AncSZ) | phosphorylation enrichment (EPHB2) | phosphorylation enrichment (MERTK) | phosphorylation enrichment (Fes) | SH2 binding enrichment (SHP2-C SH2) | SH2 binding enrichment (Grb2 SH2) | SH2 binding enrichment (c-Src SH2)
1 | DDERGYRRVRC [GIGYF2_Y268_S273C] | 0.562 | 0.647 | 0.513 | 0.834 | 0.533 | 0.426 | 0.519 | 0.483 | 0.529 | 0.75 | 0.551 | 0.438 | 0.882 | 0.788 | 1.09 | 0.658
2 | DDHFTYSRYPW [LY75_Y888] | 0.969 | 1.86 | 0.642 | 1.13 | 0.576 | 5.2 | 4.66 | 6.62 | 4.82 | 1.49 | 7.92 | 1.23 | 1.13 | 0.942 | 0.531 | 0.432
3 | DFFDLYGGEKK [PTPN11_Y66_F71K_YF] | 0.772 | 0.827 | 0.566 | 1.16 | 0.562 | 2.26 | 0.511 | 2.81 | 1.32 | 1.17 | 0.79 | 0.499 | 1.38 | 0.86 | 0.994 | 0.601
4 | DFPMGYPSFLA [TBCK_Y153_I151M_YF] | 0.49 | 0.592 | 0.432 | 0.691 | 0.424 | 0.428 | 0.496 | 0.358 | 0.424 | 0.64 | 0.469 | 0.429 | 0.832 | 0.523 | 0.672 | 0.354
5 | DFPMGYPSYLA [TBCK_Y153_I151M] | 0.473 | 0.507 | 0.362 | 0.663 | 0.412 | 0.416 | 0.399 | 0.367 | 0.443 | 0.65 | 0.453 | 0.464 | 0.751 | 0.827 | 0.825 | 0.572
6 | DFSLKYPTDIP [APC_Y1183_A1184P_YF] | 0.685 | 0.702 | 0.616 | 0.943 | 0.459 | 0.534 | 0.528 | 0.46 | 0.452 | 1.03 | 0.599 | 0.52 | 1.18 | 0.618 | 0.768 | 0.386
7 | DGMADCSDPSF [CDC5L_Y459_Y459C_YF] | 0.701 | 1 | 0.627 | 1.01 | 0.533 | 0.582 | 0.627 | 0.6 | 0.524 | 1.21 | 0.659 | 0.525 | 1.29 | 0.853 | 0.984 | 0.635
8 | DIDKIYIRTGI [PIK3CA_Y355_V356I] | 0.673 | 0.576 | 0.839 | 1.06 | 0.521 | 0.395 | 0.585 | 0.481 | 0.479 | 1.25 | 0.543 | 0.342 | 1.01 | 0.896 | 0.857 | 0.623
9 | DIPIRYSIMGV [CDH4_Y205_T208M] | 0.695 | 0.723 | 0.421 | 1 | 0.481 | 0.448 | 0.473 | 0.352 | 0.455 | 1.13 | 0.603 | 0.523 | 1.14 | 2.51 | 0.894 | 1.31
10 | DKNSSYFADWF [TUBB8_Y340_L345F] | 1.62 | 0.613 | 0.345 | 1.32 | 2.44 | 0.435 | 0.676 | 0.397 | 0.479 | 0.992 | 0.507 | 2.04 | 1.01 | 0.821 | 0.984 | 0.681
11 | DLEKTYNTYRS [B4GALNT2_Y538_A533D] | 0.703 | 0.441 | 0.401 | 0.823 | 0.554 | 1.03 | 0.382 | 0.761 | 0.845 | 0.848 | 0.509 | 0.424 | 0.788 | 0.511 | 0.654 | 0.43
12 | DLKFHYDNTAG [KDR_Y1214_P1210L] | 0.661 | 0.663 | 0.466 | 0.889 | 0.517 | 0.426 | 0.515 | 0.462 | 0.484 | 0.804 | 0.504 | 0.415 | 1 | 0.598 | 0.867 | 0.552
13 | DPAFGYEDFTR [SESN2_Y323_T320A] | 0.775 | 0.764 | 0.457 | 0.987 | 0.569 | 0.59 | 0.455 | 0.594 | 0.533 | 1.08 | 0.577 | 0.445 | 1.21 | 0.693 | 0.991 | 5.24
14 | DPHECYAKVFN [ALB_Y394_D399N] | 0.643 | 0.91 | 0.529 | 0.847 | 0.589 | 0.624 | 0.549 | 0.81 | 0.552 | 0.844 | 0.586 | 0.504 | 0.952 | 1.81 | 1.11 | 1.4
15 | DPLLTHRFPPK [LMNA_Y481_Y481H] | 0.43 | 0.395 | 0.36 | 0.571 | 0.459 | 0.406 | 0.288 | 0.381 | 0.411 | 0.434 | 0.242 | 0.421 | 0.521 | 0.661 | 0.834 | 0.458
16 | DPLLTYRFPPN [LMNA_Y481_K486N] | 0.861 | 0.649 | 0.472 | 0.768 | 0.766 | 0.65 | 0.446 | 0.503 | 0.51 | 0.882 | 0.455 | 0.497 | 0.751 | 0.66 | 0.747 | 0.605
17 | DPNQQYFIAMD [TBX15_Y159_H156N_YF] | 0.866 | 0.672 | 0.403 | 0.911 | 0.892 | 0.482 | 0.466 | 0.493 | 0.444 | 1.07 | 0.443 | 0.356 | 0.934 | 0.554 | 0.754 | 0.597
18 | DQIDTYELSGG [DNM1_Y354] | 0.695 | 0.616 | 0.479 | 0.866 | 0.54 | 1.28 | 0.423 | 0.752 | 1.29 | 1.38 | 0.735 | 0.481 | 1.12 | 0.585 | 0.673 | 0.607
19 | DQVEQYKKELE [LMNA_Y259] | 0.688 | 0.878 | 0.534 | 0.956 | 0.561 | 0.603 | 0.67 | 0.509 | 0.516 | 1.32 | 0.644 | 0.527 | 1.2 | 0.66 | 0.956 | 0.841
20 | DRLPSYLDKVR [KRT12_Y139_A137P] | 0.485 | 0.494 | 0.436 | 0.616 | 0.408 | 0.479 | 0.371 | 0.794 | 0.454 | 0.62 | 0.331 | 0.656 | 0.665 | 0.756 | 0.94 | 0.671
21 | DRPSEYAARQL [ANXA13_Y90] | 0.482 | 0.579 | 0.341 | 0.498 | 0.445 | 0.389 | 0.408 | 0.428 | 0.453 | 0.598 | 0.456 | 0.437 | 0.655 | 0.699 | 0.746 | 0.523
22 | DTDSSYCIPTA [GAB1_Y373] | 0.65 | 0.73 | 0.519 | 1.07 | 0.592 | 0.497 | 0.692 | 0.578 | 0.518 | 1.99 | 0.598 | 1.01 | 1.18 | 0.854 | 0.95 | 0.741
23 | DTLLEYLENPK [CYCS_Y68_M66L] | 0.828 | 0.668 | 0.576 | 1.04 | 0.503 | 0.463 | 0.7 | 0.511 | 0.493 | 1.45 | 0.535 | 0.448 | 1.25 | 0.735 | 0.763 | 0.501
24 | DTYDPYLDIAL [USP36_Y268_V271I] | 0.968 | 0.982 | 0.721 | 1.32 | 0.901 | 2.42 | 1.03 | 1.06 | 1.47 | 1.6 | 0.892 | 0.611 | 1.55 | 0.451 | 0.781 | 0.451
25 | DVRQEYPGMIL [PLXND1_Y616] | 0.588 | 0.669 | 0.394 | 0.76 | 0.455 | 0.403 | 0.413 | 0.497 | 0.41 | 0.675 | 0.517 | 0.487 | 0.949 | 0.555 | 0.889 | 0.433
26 | DVYVSYDYGKS [SORL1_Y139] | 4.03 | 1.03 | 2.42 | 0.795 | 6.8 | 5.25 | 2.95 | 4.33 | 7.46 | 1.45 | 5.62 | 4.1 | 0.98 | 1 | 0.741 | 0.924
27 | EAEALYQTKFQ [KRT73_Y325] | 0.687 | 0.85 | 0.964 | 0.976 | 0.534 | 1.44 | 0.58 | 2.65 | 1.32 | 1.33 | 0.645 | 0.569 | 1.19 | 0.609 | 0.707 | 0.348
28 | EAMPDYKKQLR [SPATA18_Y229_S227P] | 0.444 | 0.469 | 0.474 | 0.623 | 0.399 | 0.378 | 0.378 | 0.296 | 0.309 | 0.608 | 0.394 | 0.322 | 0.819 | 0.649 | 0.835 | 0.406
29 | EAVKNYTEKRG [PBRM1_Y672_D674E] | 0.449 | 0.433 | 0.564 | 0.478 | 0.394 | 0.335 | 0.318 | 0.388 | 0.328 | 0.626 | 0.344 | 0.384 | 0.514 | 0.612 | 1.01 | 0.446
